Drawing on paper PMC5759053, this text covers FRET efficiency for one substance.

This test deals with Positive controls (Ci-M1; TRPV4-Ci, each with Ce-M1). As to the kind of experiment: FRET or BRET. Background: Bioluminescence resonance energy transfer reports proximity on the nanometre scale.

Chain of cerulean-AQP4 M1 (P55088 whole entry): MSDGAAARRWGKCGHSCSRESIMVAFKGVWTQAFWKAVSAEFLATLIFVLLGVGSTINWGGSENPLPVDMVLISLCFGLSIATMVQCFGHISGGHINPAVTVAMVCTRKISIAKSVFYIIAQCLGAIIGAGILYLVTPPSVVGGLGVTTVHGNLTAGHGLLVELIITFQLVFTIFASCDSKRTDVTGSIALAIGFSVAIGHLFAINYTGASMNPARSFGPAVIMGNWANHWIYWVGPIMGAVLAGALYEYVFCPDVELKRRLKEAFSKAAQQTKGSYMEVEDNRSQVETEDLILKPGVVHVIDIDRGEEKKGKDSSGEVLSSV

As for “cerulean-AQP4 M1 (from UniProt P55088-1 1-323) (natural protein)”, the FRET efficiency is 8 to 10%.
